As a reminder, the Kd is the constant that tells how readily two partners part at equilibrium.

What all share (test): EMSA
For orientation: In EMSA bound probe runs differently from free probe, usually more slowly.

The target of data set [1] is T1, Up1 (UniProt P09651-2 2-196).
A further data set addresses hnRNP A1 (A1) (UniProt P09651-2 2-320).
In data set [2] the target is T1, Up1. The source holds these as a separate data set.

B1: 32R (structured_DNA)
DNA: AGGGCGGTGTGGGAAGAGGGAAGAGGGGGAGG
On to B1, for which the Kd in the data set with Up1 [1] is approximately 50 nM.

B2: dsNHE (32R:32Y) (dsDNA)
DNA 1: B1 DNA
DNA 2: CCTCCCCCTCTTCCCTCTTCCCACACCGCCCT
For B2, the binding result with hnRNP A1 (A1) and in the data set with Up1 [2] was “no binding” throughout.

B3: CKIT (structured_DNA)
DNA: AGGGAGGGCGCTGGGAGGAGGG
B3: the binding result with Up1 [2] is on record as “binds”.

The values above are taken from article PMC2685089.
